Measured values taken from patent US7427404.

Target: monoclonal anti-S1 antibody 1B7
Assay: competition RIA: 1B7 coated on plate, 125I-PT displaced by unlabelled toxin

## PT-9K (from UniProt P04978 28-226; P04979 29-227; P0A3R5 43-152; P04981 35-133)
  Ka: 8.9e+08 M⁻¹
